Measurements reported in US20090082299A1 (US Dept. of Health and Human Services, published 2009).

Molecular target: human IL-15 expressed from plasmid hIL15tPA6 (human IL-15opt1-tPA6; improved IL-15 with tPA6 SIGPRO peptide) (human, UniProt P40933 49-162)
Experiment: cell-based or functional assay

Chain of human IL-15 expressed from plasmid hIL15tPA6 (human IL-15opt1-tPA6; improved IL-15 with tPA6 SIGPRO peptide) (P40933 other isoform, or with tags, fused parts or gaps limits assumed): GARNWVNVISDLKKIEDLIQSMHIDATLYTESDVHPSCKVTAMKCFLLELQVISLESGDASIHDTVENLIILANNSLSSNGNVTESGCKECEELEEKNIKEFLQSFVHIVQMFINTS

| Binder | total increase in IL-15 steady-state levels on co-expression in 293 cells, ELISA (FIG. 45A) |
| --- | --- |
| human IL-15 Receptor alpha, whole / full length (plasmid AG79, huIL15RaOPT) (receptor) ITCPPPMSVEHADIWVKSYSLYSRERYICNSGFKRKAGTSSLTECVLNKATNVAHWTTPSLKCIRDPALVHQRPAPPSTVTTAGVTPQPESLSPSGKEPAASSPSSNNTAATTAAIVPGSQLMPSKSPSTGTTEISSHESSHGTPSQTTAKNWELTASASHQPPGVYPQGHSDTTVAISTSTVLLCGLSAVSLLACYLKSRQTPPLASVEMEAMEALPVTWGTSSRDEDLENCSHHL | 4 fold |
| human soluble IL-15 Receptor alpha (extracellular part; plasmid AG98, hu sIL15RaOPT) (receptor) ITCPPPMSVEHADIWVKSYSLYSRERYICNSGFKRKAGTSSLTECVLNKATNVAHWTTPSLKCIRDPALVHQRPAPPSTVTTAGVTPQPESLSPSGKEPAASSPSSNNTAATTAAIVPGSQLMPSKSPSTGTTEISSHESSHGTPSQTTAKNWELTASASHQPPGVYPQGHSDTT | 7 fold |
